{
  "source": "patent US20150273048A1",
  "target": "M2e4x-PR8HA fusion protein (four tandem repeats of M2e fused to A/PR8 HA) on recombinant M2e4x-PR8HA influenza virus (influenza A/PR/8/34 (H1N1)) (UniProt P03452)",
  "assay": "ELISA on serially coated inactivated virus",
  "data": [
    {"substance": "Influenza A virus M2 monoclonal antibody 14C2 (Abcam Inc., Cambridge, Mass.)", "values": [
      {"measurement": "coating concentration at which reactivity was detected (ng/100 µl/well)", "value": 20},
      {"measurement": "fold M2e reactivity relative to parental wild type A/PR8 virus", "value": 250, "unit": "fold"}
    ]}
  ]
}
